Consider 94 variants from the supplement of paper PMC10567573.

To fix the notation:
B1: GLTSCR2 (parent)
chain: YNPSFEDHQTLLSAAHEVELQRQK
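Note: lentivirally expressed fusions sorted by FACS into six bins by GFP to DsRed ratio, PSI derived from sequencing read proportions per bin multiplied by bin number.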

In the series the parent is B1. In words: protein stability index of a GFP-peptide fusion (GPS, HEK-293T) (PSI 1-6); higher = more stable. Conditions: c terminus: a fixed tail appended.
Turning to YNPSFEDHQYLLSAAHEVELQRQK, the protein stability index turned out to be 3.03. In the case of YNPSFEDHQLLLSAAHEVELQRQK, the protein stability index amounted to 2.71.

YNPSFEDHQVLLSAAHEVELQRQK: the protein stability index turned out to be 3.53. For YNPSFEDHQKLLSAAHEVELQRQK the value was 2.35.

Turning to YNPSFEDHQPLLSAAHEVELQRQK, the protein stability index was found to be 3.7. With YNPSFEDHQTLLSAAHEVELQVQK, the protein stability index came to 3.7.

Regarding YNPSFEDHQTLLSAAHEVELQFQK, the protein stability index is 3.43. Take YNTSFEDHQTLLSAAHEVELQRQK: the protein stability index was found to be 5.01. For YNYSFEDHQTLLSAAHEVELQRQK the value was 3.97; for YNFSFEDHQTLLSAAHEVELQRQK, 4.06; for YNPSFEDHQTLLSAAHEVSLQRQK, 3.39. For YNPSFEDHQTLLSAAHEVHLQRQK the value was 3.39. For YNPSFEDHQTLLSAAHEVDLQRQK the value was 4.05; for YNPSFEDHQTLLSAAHEVTLQRQK, 3.5; for YNPSFEDHQTLWSAAHEVELQRQK, 1.58. For the variant YNPSFEDHQTLCSAAHEVELQRQK, the protein stability index is 4.02. The value for YNPSFEDHQTLQSAAHEVELQRQK was 4.2; that for YNPSFEDHQTLISAAHEVELQRQK was 3.86; that for YNPSFEDHQTLLSAAGEVELQRQK was 4.16. In the case of YNPSFEDHQTLLSAAQEVELQRQK, the protein stability index was found to be 3.48.

In the case of YNPSFEDHQTLLSAAVEVELQRQK, the protein stability index was found to be 2.97.

As for YNPSFEDHQTLLSAASEVELQRQK, the protein stability index was 4.45. For YNPSFEDHQTLLSAAMEVELQRQK the value was 3.63.

For YNPSFEDHQTLLSAAHEVELRRQK, the protein stability index stood at 3.95.

On to YNPSFEDKQTLLSAAHEVELQRQK, for which the protein stability index turned out to be 3.62. With YNPSFEDPQTLLSAAHEVELQRQK, the protein stability index was found to be 3.86. Regarding YNPSFEDQQTLLSAAHEVELQRQK, the protein stability index came to 3.84. With YNPSFEDRQTLLSAAHEVELQRQK, the protein stability index amounted to 3.66. For YNPSFEDHQTLLEAAHEVELQRQK the value was 3.2; for YNPSFEDHQTLLTAAHEVELQRQK, 4.17; for YNPSFEDHQTLLYAAHEVELQRQK, 2.75. Consider YNPSFEDHQTLLIAAHEVELQRQK, for which the protein stability index is 2.45. In the case of YNPSFEDHQTLLMAAHEVELQRQK, the protein stability index amounted to 3.08.

As for YNPSFEDHQTLLSAYHEVELQRQK, the protein stability index was determined as 3.48. Regarding YNPSFEDHQTLLSADHEVELQRQK, the protein stability index came out at 4.54. Take YNPSFEDHQTLLSANHEVELQRQK: the protein stability index stood at 3.85. As to YNPSFEDHQTLLSAPHEVELQRQK, the protein stability index was found to be 3.61. For YNPSFEDHQTLLSATHEVELQRQK the value was 3.75; for YNPSFEDHQTLLSAAHEVELQRNK, 3.45; for YNPSFEDHQTLLSAAHEVELQRKK, 3.75.

For YNPSFEDHQTLLSAAHEVELQRVK, the protein stability index was 3.57. For YMPSFEDHQTLLSAAHEVELQRQK the value was 4.34; for YIPSFEDHQTLLSAAHEVELQRQK, 3.38; for YNPSFMDHQTLLSAAHEVELQRQK, 2.38.

With YNPSFGDHQTLLSAAHEVELQRQK, the protein stability index amounted to 3.42. For YNPSFDDHQTLLSAAHEVELQRQK the value was 4.14; for YNPSFADHQTLLSAAHEVELQRQK, 3.1. For YNPSFEDHQTLLSKAHEVELQRQK the value was 3.92.

Take YNPSFEDHQTLLSPAHEVELQRQK: the protein stability index worked out at 4.08. The value for YNPSFEDHQTLLSIAHEVELQRQK was 3.02. The value for YNPSFEDHQTLLSFAHEVELQRQK was 2.53; that for YNPSFEDHQTLLSCAHEVELQRQK was 2.53. For YNPSFEDHQTLLSMAHEVELQRQK the value was 3.62; for YNPSFEDHQTLLSAAHETELQRQK, 4.24. Turning to YNPSFEDHQTLLSAAHESELQRQK, the protein stability index stood at 3.65. The value for YNPSFEDHQTLLSAAHEQELQRQK was 3.76. The value for YNPSFEDHQTLLSAAHEWELQRQK was 2.54; that for YNPSFEDHQTLLSAAHEPELQRQK was 4.41.

Turning to YNPSFEDHQTLLSAAHEDELQRQK, the protein stability index was determined as 4.13. In the case of YNPWFEDHQTLLSAAHEVELQRQK, the protein stability index was 3.67. For YNPEFEDHQTLLSAAHEVELQRQK the value was 4.72; for YNPSFECHQTLLSAAHEVELQRQK, 4.08; for YNPSFEQHQTLLSAAHEVELQRQK, 4.27. Turning to YNPSFETHQTLLSAAHEVELQRQK, the protein stability index turned out to be 3.55. In the case of YNPSDEDHQTLLSAAHEVELQRQK, the protein stability index was 5.24. Turning to YNPSVEDHQTLLSAAHEVELQRQK, the protein stability index came to 3.83. For YNPSWEDHQTLLSAAHEVELQRQK the value was 3.07. For YNPSYEDHQTLLSAAHEVELQRQK the value was 3.68; for YNPSGEDHQTLLSAAHEVELQRQK, 4.06. Consider YNPSFEDHGTLLSAAHEVELQRQK, for which the protein stability index worked out at 4.42. Consider YNPSFEDHNTLLSAAHEVELQRQK, for which the protein stability index came to 4.1. The value for YNPSFEDHMTLLSAAHEVELQRQK was 2.72. For YNPSFEDHQTLLSAAHFVELQRQK the value was 2.45; for YNPSFEDHQTLLSAAHQVELQRQK, 2.94. The value for YNPSFEDHQTLLSAAHYVELQRQK was 2.51; that for YNPSFEDHQTLLSAAHEVEFQRQK was 3.57; that for YNPSFEDHQTLLSAAHEVEMQRQK was 3.67.

For YNPSFEDHQTLLSAAHEVEEQRQK, the protein stability index stood at 4.54. The value for YNPSFEDHQTLLSAAHEVELQRQC was 3.22; that for YNPSFEDHQTLLSAAHEVELQRQH was 3.23; that for YNPSFEDHQTLLSAAHEVELQRQG was 3.78.

In the case of YNPSFEDHQTLLSAAHEVELQRQM, the protein stability index came to 3.28. The value for YNPSFEDHQTLLSAAHEVELQRQP was 3.33; that for YNPSFEDHQTLLSAAHEVELQRQQ was 3.81; that for YNPSFEDHQTPLSAAHEVELQRQK was 4.92. In the case of YNPSFEDHQTTLSAAHEVELQRQK, the protein stability index turned out to be 5.29. The value for YNPSFEDHQTWLSAAHEVELQRQK was 2.38; that for YNPSFEDHQTKLSAAHEVELQRQK was 4.71; that for YNPSFEDHQTVLSAAHEVELQRQK was 3.98. Take SNPSFEDHQTLLSAAHEVELQRQK: the protein stability index came out at 5.38. KNPSFEDHQTLLSAAHEVELQRQK: the protein stability index was determined as 4.87. As to MNPSFEDHQTLLSAAHEVELQRQK, the protein stability index is 4.96.

For TNPSFEDHQTLLSAAHEVELQRQK, the protein stability index was 4.67. For INPSFEDHQTLLSAAHEVELQRQK the value was 4.74.
